# Laboratory results published in US10787640B2, “Producing mesodermal cell types and methods of using the same” (The Board of Trustees of the Leland Stanford Junior …, priority 2015, dated 2020).
# B1: BMP4: BMP family ligand, BMP agonist (protein, UniProt P12644 293-408, looked up)
# Bone morphogenetic protein 4: SPKHHSQRARKKNKNCRRHSLYVDFSDVGWNDWIVAPPGYQAFYCHGDCPFPLADHLNSTNHAIVQTLVNSVNSSIPKACCVPTELSAISMLYLDEYDKVVLKNYQEMVVEGCGCR
# Experiments:
# [1] = tested on: day 3 early somite progenitors; assay: Patterning of early somite progenitors into sclerotome or dermomyotome; format: cell-based, human
# Procedure: Day 2 paraxial mesoderm was briefly washed (DMEM/F12) and further differentiated into day 3 early somite/somitomere precursors for 24 hours (1 μM A-83-01+250 nM LDN-193189+1 μM C59+500 nM PD0325901). Subsequently, day 3 early somites were dorsoventrally patterned into either ventral somites/sclerotome (5 nM 21K+1 μM C59) or dorsal somites/dermomyotome (3 μM CHIR99021+150 nM Vismodegib). Sclerotome induction was conducted for 48-72 hours (leading to day 5-6 ventral somite progenitors). […] Media was changed 24 hours for all steps. The Hedgehog agonist 21K, which has been previously described in, e.g., Brunton et al., 2009 the disclosure of which is incorporated herein by reference in its entirety, was commercially synthesized.
# Day 3 early somites were briefly washed (DMEM/F12), treated with BMP4+CHIR99021+Vismodegib for 24 hours, washed again (DMEM/F12) and subsequently treated with CHIR99021 (3 μM)+21K (5 nM) for 24 hours. This day 5 dermomyotome was further empirically differentiated towards skeletal muscle-like progeny (using medium containing 2% horse serum, which has been previously described in, e.g., Xu et al. 2013, the disclosure of which is incorporated herein by reference in its entirety) for 12 days, yielding day 17 skeletal muscle-containing populations.
# FIG. 11: A) To determine the length of time required for sclerotome differentiation, a qPCR timecourse was performed, encompassing undifferentiated hESCs (D0), day 2 hESC-derived paraxial mesoderm (D2 PXM), day 3 hESC-derived early somite progenitors, and hESC-derived day 3 early somite progenitors that were exposed to sclerotome inductive conditions (5 nM 21K+1 μM C59) for 24 or 48 hours. B) Description of EF1α-BCL2-T2A-GFP lentiviral construct (otherwise known as “C306”; top) and FACS plot of a stably-transduced polyclonal H9 hESC line with near-uniform expression of the BCL2-T2A-GFP transgene (green contour) by comparison to uncolored wild-type hESCs (bottom) (see above methods for details of derivation of the H9 BCL2-T2A-GFP hESC line). C) Higher-magnification picture of BCL2-T2A-GFP hESC-derived sclerotome ectopic bone grafts (originally described above in FIG. 4, panel E), showing that despite the near-ubiquitous expression of GFP throughout the ectopic bone graft (indicating its human provenance), the blood vessels are clearly GFP-negative and therefore presumably derived from the mouse host; scale bar=1 mm. […] L) Description of EF1a-BCL2-T2A-GFP lentiviral construct (otherwise known as “C306”; top) and FACS plot of a stably-transduced polyclonal H9 hESC line with near-uniform expression of the BCL2-T2A-GFP transgene (green contour) by comparison to uncolored wild-type hESCs (bottom) (see the methods described herein for details of derivation of the H9 BCL2-T2A-GFP hESC line). M) Description of UBC-Luciferase-T2A-tdTomato lentiviral construct (top); bioluminescent assay of cultured H9 UBC-Luciferase-T2A-tdTomato hESCs validates that these cells are luciferase-expressing in vitro (bottom).
# [2] = tested on: day 5 hematopoietic intermediates; assay: Day 5-7 continued differentiation of hematopoietic intermediates, factor withholding; format: cell-based, human
# Procedure: SOX17^mCherry/+ H9 hESCs (referred to as SOX17-mCherry hESCs throughout this study) were routinely propagated in mTeSR1 (StemCell Technologies)+1% penicillin/streptomycin. They were passaged ˜1:12-1:25 as fine clumps using Accutase (Gibco) onto plates precoated with a Geltrex substratum (Gibco) in mTeSR1 medium supplemented with thiazovivin ([…]; a ROCK inhibitor). After overnight plating, hESCs were washed (DMEM/F12) and differentiated towards posterior PS using BMP4 (15-40 ng/mL, R&D Systems), CHIR99021 ([…]), FGF2 (20 ng/mL, Invitrogen) and PIK90 (100 nM, Calbiochem) for 24 hours, with the optional inclusion of Activin (30 ng/mL, R&D Systems) to induce mid PS. Day 1 mid or posterior PS was subsequently washed (DMEM/F12) and further differentiated using BMP4 (40 ng/mL), GDC-0941 (0.25-2.5 μM, Cellagen Technology), Forskolin (10 μM, Tocris), SB-505124 ([…]), VEGF (100 ng/mL, R&D Systems), XAV939 (1 μM, Tocris) and ascorbic acid-2-phosphate (200 μg/mL, Sigma) for 24 hours. Day 2 cultures were further directed into the definitive hematopoietic lineage/hemogenic precursors by Activin A (15 ng/mL), GDC-0941 (0.25-2.5 μM), VEGF (100 ng/mL), XAV939 (1 μM) and ascorbic acid-2-phosphate (200 μg/mL) for 24 hours. Day 3 definitive hematopoietic progenitors were subsequently differentiated into early Runx1^lowGfi1^low hemogenic intermediates through day 4-5 treatment with BMP4 (50 ng/mL), TTNPB (500 nM), VEGF (100 ng/mL) and XAV939 (1 μM) for 48 hours, supplemented with SB-505124 (2 μM) on day 5. Day 5 populations were then dissociated into single cells, counted and reaggregated in individual wells of a low-adhesion V-bottom or U-bottom 96-well plate (e.g., Thermo Fisher, catalog no. 249952) with ˜15,000-20,000 cells seeded per well. Aggregates were cultured for 48 additional hours until day 7 in BMP4 (50 ng/mL), TTNPB (500 nM), VEGF (100 ng/mL), XAV939 (1 μM), SB-505124 (2 μM), SCF (25-50 ng/mL, R&D Systems), IL6 (10 ng/mL, R&D Systems) and IL6RA (250-1000 ng/mL, R&D Systems). All differentiation was conducted in serum-free CDM2 fully-defined basal media.
molecule,measurement,setting,value
"Cc1cnc(-c2cnc(NCCNc3ccc(C#N)cn3)nc2-c2ccc(Cl)cc2Cl)[nH]1 [CHIR99021, 6-[[2-[[4-(2,4-Dichlorophenyl)-5-(5-methyl-1H-imidazol-2-yl)-2-pyrimidinyl]amino]ethyl]amino]-3-pyridinecarbonitrile]",dorsal somite marker PAX3 and sclerotome fate,[1]; CHIR together with Vismodegib,sustained dorsal somite marker PAX3 while inhibiting the sclerotome fate
"Cc1cccc(-c2[nH]c(C(C)(C)C)nc2-c2ccc3c(c2)OCO3)n1 [SB-505124, 2-[4-(1,3-Benzodioxol-5-yl)-2-(1,1-dimethylethyl)-1H-imidazol-5-yl]-6-methyl-pyridine]",GFI1B expression,"[2]; individually withholding the factor from the 8 factors, 48 hours",strongly diminished
B1,PAX7 expression,"[1]; 3 μM CHIR99021+150 nM Vismodegib, 48 hours, BMP4 10 ng/mL",greatly enhances the expression of PAX7
same,PAX7 induction in central dermomyotome,"[1]; CHIR99021+Vismodegib+BMP4, 24 hours",important to induce PAX7 in central dermomyotome
same,hematopoietic or venous gene expression,[2]; withdrawal of the factor,minimally effected hematopoietic or venous gene expression
